Nine molecules from US20250171562A1 (ALK ABELL, published 2025) can be followed below.

B1: CIgG4B1A1(G3S) (Fc fusion)
chain 1: GPPCPPCPAPEFLGGPSVFLFPPKPKDTLMISRTPEVTCVVVDVSQEDPEVQFNWYVDGVEVHNAKTKPREEQFNSTYRVVSVLTVLHQDWLNGKEYKCKVSNKGLPSSIEKTISKAKGQPREPQVYTLPPCQEEMTKNQVSLWCLVKGFYPSDIAVEWESNGQPENNYKTTPPVLDSDGSFFLYSRLTVDKSRWQEGNVFSCSVMHEALHNHYTQKSLSLSLGKGGGSQVQLQESGGGLVQTGGSLRLSCAVHGRTFSNTGMGWFRQAPGNERQFVAIISPSGTSTYYADSVKGRFTISRDPAKNTVYLQMNSLKMDDTAVYYCAASYGSNWSTLRHQRRNEYDAWGQGTQVAVS
chain 2: GPPCPPCPAPEFLGGPSVFLFPPKPKDTLMISRTPEVTCVVVDVSQEDPEVQFNWYVDGVEVHNAKTKPREEQFNSTYRVVSVLTVLHQDWLNGKEYKCKVSNKGLPSSIEKTISKAKGQPREPQVCTLPPSQEEMTKNQVSLSCAVKGFYPSDIAVEWESNGQPENNYKTTPPVLDSDGSFFLVSRLTVDKSRWQEGNVFSCSVMHEALHNHYTQKSLSLSLGKGGGSEVQLLESGGGLVQPGGSLRLSCAASGFTFGNYDMAWVRQAPGKRPEWVSSIDTGGDITHYADSVKGRFTISRDNAKNTLYLQMNSLRPEDTAVYWCATDEEYALGPNEFDYYGQGTLVTVSS
B2: B1A1(G4S)4 (bispecific antibody)
chain: QVQLQESGGGLVQTGGSLRLSCAVHGRTFSNTGMGWFRQAPGNERQFVAIISPSGTSTYYADSVKGRFTISRDPAKNTVYLQMNSLKMDDTAVYYCAASYGSNWSTLRHQRRNEYDAWGQGTQVAVSGGGGSGGGGSGGGGSGGGGSEVQLLESGGGLVQPGGSLRLSCAASGFTFGNYDMAWVRQAPGKRPEWVSSIDTGGDITHYADSVKGRFTISRDNAKNTLYLQMNSLRPEDTAVYWCATDEEYALGPNEFDYYGQGTLVTVS
notes: two sdAbs linked by a peptide linker
B3: A1B1(G4S)4 (bispecific antibody)
chain: EVQLLESGGGLVQPGGSLRLSCAASGFTFGNYDMAWVRQAPGKRPEWVSSIDTGGDITHYADSVKGRFTISRDNAKNTLYLQMNSLRPEDTAVYWCATDEEYALGPNEFDYYGQGTLVTVSGGGGSGGGGSGGGGSGGGGSQVQLQESGGGLVQTGGSLRLSCAVHGRTFSNTGMGWFRQAPGNERQFVAIISPSGTSTYYADSVKGRFTISRDPAKNTVYLQMNSLKMDDTAVYYCAASYGSNWSTLRHQRRNEYDAWGQGTQVAVS
B4: CIgG4B1A1(EAAAK) (Fc fusion)
chain 1: GPPCPPCPAPEFLGGPSVFLFPPKPKDTLMISRTPEVTCVVVDVSQEDPEVQFNWYVDGVEVHNAKTKPREEQFNSTYRVVSVLTVLHQDWLNGKEYKCKVSNKGLPSSIEKTISKAKGQPREPQVYTLPPCQEEMTKNQVSLWCLVKGFYPSDIAVEWESNGQPENNYKTTPPVLDSDGSFFLYSRLTVDKSRWQEGNVFSCSVMHEALHNHYTQKSLSLSLGKEAAAKQVQLQESGGGLVQTGGSLRLSCAVHGRTFSNTGMGWFRQAPGNERQFVAIISPSGTSTYYADSVKGRFTISRDPAKNTVYLQMNSLKMDDTAVYYCAASYGSNWSTLRHQRRNEYDAWGQGTQVAVS
chain 2: GPPCPPCPAPEFLGGPSVFLFPPKPKDTLMISRTPEVTCVVVDVSQEDPEVQFNWYVDGVEVHNAKTKPREEQFNSTYRVVSVLTVLHQDWLNGKEYKCKVSNKGLPSSIEKTISKAKGQPREPQVCTLPPSQEEMTKNQVSLSCAVKGFYPSDIAVEWESNGQPENNYKTTPPVLDSDGSFFLVSRLTVDKSRWQEGNVFSCSVMHEALHNHYTQKSLSLSLGKEAAAKEVQLLESGGGLVQPGGSLRLSCAASGFTFGNYDMAWVRQAPGKRPEWVSSIDTGGDITHYADSVKGRFTISRDNAKNTLYLQMNSLRPEDTAVYWCATDEEYALGPNEFDYYGQGTLVTVSS
B5: CIgG4B1A1(G2S) (Fc fusion)
chain 1: GPPCPPCPAPEFLGGPSVFLFPPKPKDTLMISRTPEVTCVVVDVSQEDPEVQFNWYVDGVEVHNAKTKPREEQFNSTYRVVSVLTVLHQDWLNGKEYKCKVSNKGLPSSIEKTISKAKGQPREPQVYTLPPCQEEMTKNQVSLWCLVKGFYPSDIAVEWESNGQPENNYKTTPPVLDSDGSFFLYSRLTVDKSRWQEGNVFSCSVMHEALHNHYTQKSLSLSLGKGGSQVQLQESGGGLVQTGGSLRLSCAVHGRTFSNTGMGWFRQAPGNERQFVAIISPSGTSTYYADSVKGRFTISRDPAKNTVYLQMNSLKMDDTAVYYCAASYGSNWSTLRHQRRNEYDAWGQGTQVAVS
chain 2: GPPCPPCPAPEFLGGPSVFLFPPKPKDTLMISRTPEVTCVVVDVSQEDPEVQFNWYVDGVEVHNAKTKPREEQFNSTYRVVSVLTVLHQDWLNGKEYKCKVSNKGLPSSIEKTISKAKGQPREPQVCTLPPSQEEMTKNQVSLSCAVKGFYPSDIAVEWESNGQPENNYKTTPPVLDSDGSFFLVSRLTVDKSRWQEGNVFSCSVMHEALHNHYTQKSLSLSLGKGGSEVQLLESGGGLVQPGGSLRLSCAASGFTFGNYDMAWVRQAPGKRPEWVSSIDTGGDITHYADSVKGRFTISRDNAKNTLYLQMNSLRPEDTAVYWCATDEEYALGPNEFDYYGQGTLVTVSS
B6: CIgG4B1A1(G2SG2S) (Fc fusion)
chain 1: GPPCPPCPAPEFLGGPSVFLFPPKPKDTLMISRTPEVTCVVVDVSQEDPEVQFNWYVDGVEVHNAKTKPREEQFNSTYRVVSVLTVLHQDWLNGKEYKCKVSNKGLPSSIEKTISKAKGQPREPQVYTLPPCQEEMTKNQVSLWCLVKGFYPSDIAVEWESNGQPENNYKTTPPVLDSDGSFFLYSRLTVDKSRWQEGNVFSCSVMHEALHNHYTQKSLSLSLGKGGSGGSQVQLQESGGGLVQTGGSLRLSCAVHGRTFSNTGMGWFRQAPGNERQFVAIISPSGTSTYYADSVKGRFTISRDPAKNTVYLQMNSLKMDDTAVYYCAASYGSNWSTLRHQRRNEYDAWGQGTQVAVS
chain 2: GPPCPPCPAPEFLGGPSVFLFPPKPKDTLMISRTPEVTCVVVDVSQEDPEVQFNWYVDGVEVHNAKTKPREEQFNSTYRVVSVLTVLHQDWLNGKEYKCKVSNKGLPSSIEKTISKAKGQPREPQVCTLPPSQEEMTKNQVSLSCAVKGFYPSDIAVEWESNGQPENNYKTTPPVLDSDGSFFLVSRLTVDKSRWQEGNVFSCSVMHEALHNHYTQKSLSLSLGKGGSGGSEVQLLESGGGLVQPGGSLRLSCAASGFTFGNYDMAWVRQAPGKRPEWVSSIDTGGDITHYADSVKGRFTISRDNAKNTLYLQMNSLRPEDTAVYWCATDEEYALGPNEFDYYGQGTLVTVSS
B7: CIgG4B1A1(GS) (Fc fusion)
chain 1: GPPCPPCPAPEFLGGPSVFLFPPKPKDTLMISRTPEVTCVVVDVSQEDPEVQFNWYVDGVEVHNAKTKPREEQFNSTYRVVSVLTVLHQDWLNGKEYKCKVSNKGLPSSIEKTISKAKGQPREPQVYTLPPCQEEMTKNQVSLWCLVKGFYPSDIAVEWESNGQPENNYKTTPPVLDSDGSFFLYSRLTVDKSRWQEGNVFSCSVMHEALHNHYTQKSLSLSLGKGSQVQLQESGGGLVQTGGSLRLSCAVHGRTFSNTGMGWFRQAPGNERQFVAIISPSGTSTYYADSVKGRFTISRDPAKNTVYLQMNSLKMDDTAVYYCAASYGSNWSTLRHQRRNEYDAWGQGTQVAVS
chain 2: GPPCPPCPAPEFLGGPSVFLFPPKPKDTLMISRTPEVTCVVVDVSQEDPEVQFNWYVDGVEVHNAKTKPREEQFNSTYRVVSVLTVLHQDWLNGKEYKCKVSNKGLPSSIEKTISKAKGQPREPQVCTLPPSQEEMTKNQVSLSCAVKGFYPSDIAVEWESNGQPENNYKTTPPVLDSDGSFFLVSRLTVDKSRWQEGNVFSCSVMHEALHNHYTQKSLSLSLGKGSEVQLLESGGGLVQPGGSLRLSCAASGFTFGNYDMAWVRQAPGKRPEWVSSIDTGGDITHYADSVKGRFTISRDNAKNTLYLQMNSLRPEDTAVYWCATDEEYALGPNEFDYYGQGTLVTVSS
B8: CIgG4B1A1(no linker) (Fc fusion)
chain 1: GPPCPPCPAPEFLGGPSVFLFPPKPKDTLMISRTPEVTCVVVDVSQEDPEVQFNWYVDGVEVHNAKTKPREEQFNSTYRVVSVLTVLHQDWLNGKEYKCKVSNKGLPSSIEKTISKAKGQPREPQVYTLPPCQEEMTKNQVSLWCLVKGFYPSDIAVEWESNGQPENNYKTTPPVLDSDGSFFLYSRLTVDKSRWQEGNVFSCSVMHEALHNHYTQKSLSLSLGKQVQLQESGGGLVQTGGSLRLSCAVHGRTFSNTGMGWFRQAPGNERQFVAIISPSGTSTYYADSVKGRFTISRDPAKNTVYLQMNSLKMDDTAVYYCAASYGSNWSTLRHQRRNEYDAWGQGTQVAVS
chain 2: GPPCPPCPAPEFLGGPSVFLFPPKPKDTLMISRTPEVTCVVVDVSQEDPEVQFNWYVDGVEVHNAKTKPREEQFNSTYRVVSVLTVLHQDWLNGKEYKCKVSNKGLPSSIEKTISKAKGQPREPQVCTLPPSQEEMTKNQVSLSCAVKGFYPSDIAVEWESNGQPENNYKTTPPVLDSDGSFFLVSRLTVDKSRWQEGNVFSCSVMHEALHNHYTQKSLSLSLGKEVQLLESGGGLVQPGGSLRLSCAASGFTFGNYDMAWVRQAPGKRPEWVSSIDTGGDITHYADSVKGRFTISRDNAKNTLYLQMNSLRPEDTAVYWCATDEEYALGPNEFDYYGQGTLVTVSS
B9: CIgG4B1A1(EAAAK)2 (Fc fusion)
chain 1: GPPCPPCPAPEFLGGPSVFLFPPKPKDTLMISRTPEVTCVVVDVSQEDPEVQFNWYVDGVEVHNAKTKPREEQFNSTYRVVSVLTVLHQDWLNGKEYKCKVSNKGLPSSIEKTISKAKGQPREPQVYTLPPCQEEMTKNQVSLWCLVKGFYPSDIAVEWESNGQPENNYKTTPPVLDSDGSFFLYSRLTVDKSRWQEGNVFSCSVMHEALHNHYTQKSLSLSLGKEAAAKEAAAKQVQLQESGGGLVQTGGSLRLSCAVHGRTFSNTGMGWFRQAPGNERQFVAIISPSGTSTYYADSVKGRFTISRDPAKNTVYLQMNSLKMDDTAVYYCAASYGSNWSTLRHQRRNEYDAWGQGTQVAVS
chain 2: GPPCPPCPAPEFLGGPSVFLFPPKPKDTLMISRTPEVTCVVVDVSQEDPEVQFNWYVDGVEVHNAKTKPREEQFNSTYRVVSVLTVLHQDWLNGKEYKCKVSNKGLPSSIEKTISKAKGQPREPQVCTLPPSQEEMTKNQVSLSCAVKGFYPSDIAVEWESNGQPENNYKTTPPVLDSDGSFFLVSRLTVDKSRWQEGNVFSCSVMHEALHNHYTQKSLSLSLGKEAAAKEAAAKEVQLLESGGGLVQPGGSLRLSCAASGFTFGNYDMAWVRQAPGKRPEWVSSIDTGGDITHYADSVKGRFTISRDNAKNTLYLQMNSLRPEDTAVYWCATDEEYALGPNEFDYYGQGTLVTVSS

T1 sequence (P01854 other isoform, or with tags, fused parts or gaps): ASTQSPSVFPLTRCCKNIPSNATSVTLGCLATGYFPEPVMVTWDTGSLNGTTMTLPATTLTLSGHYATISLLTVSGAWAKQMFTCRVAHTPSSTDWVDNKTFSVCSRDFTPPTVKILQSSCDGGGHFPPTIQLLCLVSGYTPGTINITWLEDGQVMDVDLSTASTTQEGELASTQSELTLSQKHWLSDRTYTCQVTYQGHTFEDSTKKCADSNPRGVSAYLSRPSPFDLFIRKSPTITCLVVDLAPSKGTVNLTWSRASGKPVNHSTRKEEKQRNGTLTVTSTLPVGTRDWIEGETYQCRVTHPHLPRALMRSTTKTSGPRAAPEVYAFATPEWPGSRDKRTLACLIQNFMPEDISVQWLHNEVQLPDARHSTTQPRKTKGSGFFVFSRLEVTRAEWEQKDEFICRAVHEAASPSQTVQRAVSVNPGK

This assay addresses T1, recombinant human IgE (human, UniProt P01854-1 1-428).
T1 construct: made in-house (ALK); preloaded on immobilised FcεRIα in the displacement ELISA
The assay is described as follows: IgE-FcεRIα displacement ELISA. In outline:
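Streptavidin-coated plates carried site-specifically biotinylated recombinant human FcεRIα, loaded with recombinant human IgE at 13 ng/ml. sdAbs in a pM–μM series were added for 1 h, and displaced IgE was washed off. Percent displacement was the signal reduction versus the no-sdAb control, giving EC50 and maximal effect.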
In general, EC50 refers to the concentration needed to bring the measured effect to its halfway point. Regarding B1, the EC50 stood at 3.1 nM and the Max effect was > 95%.
The corresponding values for B2 are 1.9 nM and > 95%.
The like results for B3 were, in that order, 0.9 nM and > 95%.
For B4, the EC50 is 3 nM and the Max effect was > 95%.
Regarding B5, the EC50 is 3.4 nM and the Max effect was > 95%.
The like results for B6 were, in that order, 3.8 nM and > 95%.
The corresponding values for B7 are 9.1 nM and > 95%.
Consider B8, for which the EC50 is 14 nM and the Max effect came to 90%.
The like results for B9 were, in that order, 4.1 nM and > 95%.
